Test results published in patent US20250208146A1 (UNIVERSITY OF FLORIDA RESEARCH FOUNDATION, published 2025).

What was measured:
[1] = biological target: T1, Z Alpha-1 Antitrypsin (Z-AAT) (human, UniProt P01009 25-418); assay: BLI (Octet): antibody from hybridoma supernatant loaded on the biosensor at 15ug/mL, ZAAT 500nM in HEPES buffer, association 300.81 s, dissociation 800.02 s, one concentration; Full R^2 0.7794
T1 construct: In the assays the protein was Z-AAT purified from plasma of Pi*ZZ patients, or Z-AAT in Z/Z plasma; also called Z-variant of alpha-1 antitrypsin; Z-AAT protein variant
T1 sequence (P01009 25-418 E366K limits assumed): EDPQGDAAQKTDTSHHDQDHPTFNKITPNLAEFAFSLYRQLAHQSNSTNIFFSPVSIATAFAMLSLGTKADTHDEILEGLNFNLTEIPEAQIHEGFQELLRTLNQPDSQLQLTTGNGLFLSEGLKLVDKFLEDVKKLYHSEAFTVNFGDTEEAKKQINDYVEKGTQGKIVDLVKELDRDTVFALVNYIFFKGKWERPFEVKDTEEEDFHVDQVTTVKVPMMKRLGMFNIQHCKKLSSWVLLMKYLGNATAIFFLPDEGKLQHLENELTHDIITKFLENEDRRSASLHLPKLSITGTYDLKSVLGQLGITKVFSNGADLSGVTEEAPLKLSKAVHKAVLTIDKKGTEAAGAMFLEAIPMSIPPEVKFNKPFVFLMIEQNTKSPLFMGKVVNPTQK

[2] = biological target: T1, Z Alpha-1 Antitrypsin (Z-AAT); assay: BLI (Octet): antibody from hybridoma supernatant loaded on the biosensor at 15ug/mL, ZAAT 500nM in HEPES buffer, association 300.81 s, dissociation 800.02 s, one concentration; column head kdis(1/s); Full R^2 0.7794

- Kd [1]: 37.6 nM
- kon [1]: 33200 M⁻¹ s⁻¹
- koff [2]: 0.00125 s⁻¹
B1: HL2440 (antibody, V domains shown)
VH: QVQLQQPGAELVKPGASVKMSCKASGYTFTSYWITWVKQRPGQGLEWIGDIYPGSGSTNYNEKFKNKATLTVDTSSSTAYMQLSSLTSEDSAVYYCAAAVKGFAYWGQGTLVTVSA
VL: DIVMTQSHKFMSTSVGDRVSITCKASQDVGTAVAWYQQKPGQSPKLLIYWASTRHTGVPDRFTGSGSGTDFTLTISNVQSEDLADYFCQQYSTYPLTFGSGTKLEIK
notes: Mouse monoclonal from a hybridoma, used as supernatant or purified; also called Z-specific antibody HL2440; ZAAT mAb
